Reference: publication PMC8805405 (Journal of Nanobiotechnology, 2022)
Like-named read-outs stand apart in the source and are kept apart here.

Molecular target: T1, recombinant human TNF-α (Homo sapiens, UniProt P01375)
T1 construct: tumor necrosis factor alpha, human, recombinant; also called tumor necrosis factor (TNF)-α; source: bought: R&D Systems
Assay: BLI; BLItz; human TNF-α (5 μg/mL in 10 mM acetate, pH 5) immobilised on AR2G biosensors by EDC/s-NHS; various concentrations of antibody at room temperature; global fit, BLItz Pro 1.2

T1 sequence (P01375 77-233): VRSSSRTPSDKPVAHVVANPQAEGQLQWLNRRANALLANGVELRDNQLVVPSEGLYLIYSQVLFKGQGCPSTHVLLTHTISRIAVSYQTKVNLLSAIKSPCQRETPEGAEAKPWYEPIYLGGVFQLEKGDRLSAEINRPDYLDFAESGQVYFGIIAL

Kd [nM]	koff [s⁻¹]	kon [M⁻¹ s⁻¹]	Kd (both partners purified) [nM]	koff (both partners purified) [s⁻¹]	kon (both partners purified) [M⁻¹ s⁻¹]	Binder
17.7	0.000475	26800	–	–	–	humanized anti-TNF-α mAb C5 (C + b) (antibody, V domains shown) VH: EVQLVESGGGLVKPGGSLRLSCAASGFTFSNHWMNWVRQAPGKGLEWVGEIRSKSINSATHYAAPVKGRFTISRDDSKNTLYLQMNSLKTEDTAVYYCTRNYYGSTYDYWGQGTTVTVSS VL: EIVLTQSPDFQSVTPKEKVTITCRASQSIGSSLHWYQQKPDQSPKLLIKYASQSFSGVPSRFSGSGSGTDFTLTINSLEAEDAATYYCHQSSSWPFTFGQGTKLEIK
–	–	–	0.935	0.000134	143000	humanized anti-TNF-α mAb C1 (A + a) (antibody, V domains shown, VH grafting condition a (Remicade CDRs on human germline IGHV3-15*07-JH5); heavy-chain constant region; VL grafting condition A (Remicade CDRs on human germline IGKV6-21*01-JK2); light-chain constant region; source: Expi293, transfected, purified (protein A sepharose)) VH: EVQLVESGGGLVKPGGSLRLSCAASGFTFSNHWMNWVRQAPGKGLEWVGEIRSKSINSATHYAESVKGRFTISRDDSKNTLYLQMNSLKTEDTAVYYCTRNYYGSTYDYWGQGTTVTVSS VL: EIVLTQSPDFQSVTPKEKVTITCRASQFVGSSIHWYQQKPDQSPKLLIKYASESMSGVPSRFSGSGSGTDFTLTINSLEAEDAATYYCQQSHSWPFTFGQGTKLEIK
–	–	–	5.5	0.00015	27200	humanized anti-TNF-α mAb C3 (B + b) (antibody, V domains shown, VH grafting condition b (Remicade CDRs on human germline IGHV3-15*07-JH5); as the heavy chain of m4; heavy-chain constant region; VL grafting condition B (Remicade CDRs on human germline IGKV6-21*01-JK2); light-chain constant region; source: Expi293, transfected, purified (protein A sepharose)) VH: EVQLVESGGGLVKPGGSLRLSCAASGFTFSNHWMNWVRQAPGKGLEWVGEIRSKSINSATHYAAPVKGRFTISRDDSKNTLYLQMNSLKTEDTAVYYCTRNYYGSTYDYWGQGTTVTVSS VL: EIVLTQSPDFQSVTPKEKVTITCRASQFIGSSLHWYQQKPDQSPKLLIKYASQSFSGVPSRFSGSGSGTDFTLTINSLEAEDAATYYCHQSHSWPFTFGQGTKLEIK
